From US20260184814A1, “BROADLY NE[…] INFLUENZA NEURAMINIDASE” (priority 2022, published 2026) come the findings set out here.

Where two headings read alike, the source gives them in different places.

Assay [1] has as its target human FcγRIIIa (V158 allele) (human) (UniProt P08637).
In assay [2] the target is human FcγRIIIa (F158 allele) (human) (UniProt P08637).
Assay [3] addresses human FcγRIIIa (V158 allele) (human) (UniProt P08637). The assay can be described thus: MSD [cont'd].
Assay [4] concerns the target human FcγRIIIb (human) (UniProt O75015). The assay can be described thus: MSD [cont'd].
The target in assay [5] is human FcγRIIb (human) (UniProt P31994). The assay can be described thus: MSD [cont'd].
Assay [6] deals with human FcRn (human) (UniProt P55899). In words: MSD [cont'd].
Assay [7] addresses human FcγRIIa (H131 allele) (human) (UniProt P12318). The assay can be described thus: MSD [cont'd].
Assay [8] has as its target human FcγRIIa (R131 allele) (human) (UniProt P12318). In words: MSD [cont'd].
Assay [9] addresses human FcγRIIIa (F158 allele) (human) (UniProt P08637). In words: MSD [cont'd].
Assay [10] addresses human FcγRIIb (human) (UniProt P31994). The assay can be described thus: MSD.
Assay [11] shares this target. The assay can be described thus: Table B summary, vs fucosylated wild-type human IgG1.
Assay [12] concerns the target human FcγRIIIa (V158 allele) (human) (UniProt P08637). In words: MSD.
The target in assay [13] is human FcγRIIIb (human) (UniProt O75015). In words: MSD.
For assay [14], the target named is human FcγRIIa (H131 allele) (human) (UniProt P12318). The assay can be described thus: MSD.
In assay [15] the target is human FcγRIIa (R131 allele) (human) (UniProt P12318). The assay can be described thus: MSD.
Assay [16] deals with human FcγRIIIa (F158 allele) (human) (UniProt P08637). The assay can be described thus: MSD.
Assay [17] addresses human FcRn (human) (UniProt P55899). The assay can be described thus: MSD, pH 6 [cont'd].
Assay [18] addresses human C1q (human) (UniProt P02745). The assay can be described thus: MSD [cont'd].
Assay [19] addresses human FcγRIIIa (V158 allele) (human) (UniProt P08637). This is another data set of the same source.
Assay [20] deals with human FcγRIIb (human) (UniProt P31994).
Assay [21] has as its target human FcγRIIa (H131 allele) (human) (UniProt P12318).
Assay [22] concerns the target human FcγRIIIa (F158 allele) (human) (UniProt P08637). This is another data set of the same source.
Assay [23] has as its target human FcγRIIIa (V158 allele) (human) (UniProt P08637). In words: MSD [cont'd]. The source holds these as a separate data set.
The target of assay [24] is human FcγRIIb (human) (UniProt P31994). In words: MSD [cont'd]. The source holds these as a separate data set.
For assay [25], the target named is human FcRn (human) (UniProt P55899). In words: MSD [cont'd]. This is another data set of the same source.
Assay [26] addresses human C1q (human) (UniProt P02745). The assay can be described thus: MSD [cont'd]. This is another data set of the same source.
The target in assay [27] is human FcγRIIa (H131 allele) (human) (UniProt P12318). The assay can be described thus: MSD [cont'd]. This is another data set of the same source.
Assay [28] concerns the target human FcγRIIa (R131 allele) (human) (UniProt P12318). In words: MSD [cont'd]. This is another data set of the same source.
Assay [29] addresses human FcγRIIIa (F158 allele) (human) (UniProt P08637). In words: MSD [cont'd]. This is another data set of the same source.

Chain of human FcγRIIa (R131 allele) (human) (P12318 34-218 H167R limits assumed): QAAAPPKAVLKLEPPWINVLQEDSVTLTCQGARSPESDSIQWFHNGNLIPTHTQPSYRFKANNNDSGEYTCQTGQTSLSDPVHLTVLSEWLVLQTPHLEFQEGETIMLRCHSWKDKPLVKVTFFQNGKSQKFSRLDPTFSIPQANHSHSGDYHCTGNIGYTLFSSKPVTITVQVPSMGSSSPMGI
Chain of human FcRn (human) (P55899 24-297 limits assumed, chain 1 of 2): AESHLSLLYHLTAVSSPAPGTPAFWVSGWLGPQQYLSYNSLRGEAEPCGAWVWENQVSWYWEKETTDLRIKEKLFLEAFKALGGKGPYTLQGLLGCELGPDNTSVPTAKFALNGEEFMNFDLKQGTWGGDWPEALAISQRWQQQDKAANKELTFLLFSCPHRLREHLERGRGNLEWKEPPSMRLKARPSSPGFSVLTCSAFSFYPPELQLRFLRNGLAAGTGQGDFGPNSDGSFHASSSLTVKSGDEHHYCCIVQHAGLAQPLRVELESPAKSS
Chain of human FcRn (human) (chain, as listed by the source limits assumed, chain 2 of 2): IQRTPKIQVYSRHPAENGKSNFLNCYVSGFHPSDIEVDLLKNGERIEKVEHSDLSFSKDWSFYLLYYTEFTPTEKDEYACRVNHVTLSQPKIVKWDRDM
Chain of human FcγRIIIa (V158 allele) (human) (P08637 17-208 F176V limits assumed): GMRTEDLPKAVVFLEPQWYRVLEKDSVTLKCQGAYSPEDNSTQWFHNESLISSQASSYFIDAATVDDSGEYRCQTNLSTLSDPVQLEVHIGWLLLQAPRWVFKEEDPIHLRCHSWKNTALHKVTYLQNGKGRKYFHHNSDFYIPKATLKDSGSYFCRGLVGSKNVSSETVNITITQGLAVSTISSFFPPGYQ
Chain of human FcγRIIb (human) (P31994 43-217 limits assumed): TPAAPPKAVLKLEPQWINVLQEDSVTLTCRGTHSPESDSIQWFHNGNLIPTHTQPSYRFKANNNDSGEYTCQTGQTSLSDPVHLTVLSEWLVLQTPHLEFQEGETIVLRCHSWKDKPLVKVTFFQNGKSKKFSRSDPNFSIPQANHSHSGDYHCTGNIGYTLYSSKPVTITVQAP
Chain of human C1q (human) (P02745 23-245 limits assumed, chain 1 of 3): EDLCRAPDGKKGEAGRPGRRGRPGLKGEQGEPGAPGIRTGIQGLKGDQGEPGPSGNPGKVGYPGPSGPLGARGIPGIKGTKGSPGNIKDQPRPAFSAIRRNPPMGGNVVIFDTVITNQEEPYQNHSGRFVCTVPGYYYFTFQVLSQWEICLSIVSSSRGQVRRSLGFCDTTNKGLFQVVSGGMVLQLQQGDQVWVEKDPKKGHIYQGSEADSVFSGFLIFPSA
Chain of human C1q (human) (P02746 28-253 limits assumed, chain 2 of 3, further chain): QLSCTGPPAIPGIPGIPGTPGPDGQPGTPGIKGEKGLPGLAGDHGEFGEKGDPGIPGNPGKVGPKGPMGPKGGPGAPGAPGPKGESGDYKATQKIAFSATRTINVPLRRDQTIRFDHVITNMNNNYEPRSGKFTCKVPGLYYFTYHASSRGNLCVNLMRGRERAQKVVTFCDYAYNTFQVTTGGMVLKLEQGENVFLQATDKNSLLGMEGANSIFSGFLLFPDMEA
Chain of human C1q (human) (P02747 29-245 limits assumed, chain 3 of 3, further chain): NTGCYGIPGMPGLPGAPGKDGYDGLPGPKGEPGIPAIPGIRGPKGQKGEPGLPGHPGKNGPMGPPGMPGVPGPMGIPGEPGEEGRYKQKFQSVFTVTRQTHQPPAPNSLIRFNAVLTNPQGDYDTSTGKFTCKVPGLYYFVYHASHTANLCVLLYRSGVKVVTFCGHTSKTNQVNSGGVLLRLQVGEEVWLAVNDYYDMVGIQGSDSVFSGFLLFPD
Chain of human FcγRIIIa (F158 allele) (human) (P08637 17-208 limits assumed): as the sequence (P08637 17-208 F176V limits assumed) above, with V160F counted along it
Chain of human FcγRIIa (H131 allele) (human) (P12318 34-218 limits assumed): as the sequence (P12318 34-218 H167R limits assumed) above, with R134H counted along it
Chain of human FcγRIIIb (human) (O75015 17-200 limits assumed): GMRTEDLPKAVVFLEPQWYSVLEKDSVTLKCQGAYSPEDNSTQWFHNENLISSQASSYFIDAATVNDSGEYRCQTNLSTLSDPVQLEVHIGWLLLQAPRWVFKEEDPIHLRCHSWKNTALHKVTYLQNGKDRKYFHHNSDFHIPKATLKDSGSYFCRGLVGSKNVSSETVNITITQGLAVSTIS

On to G236A_S239D_A330L_I332E-afuc (antibody), for which the FcγR reporter signaling, fold to wt-fucose [cont'd] in assay [1] was 5.16 fold; in assay [2] it was 11.5 fold. For the same substance, the fold to wt-fucose in assay [3] was determined as 75.6 fold; in [4], 94.3 fold; in [5] it was 1.21 fold; in assay [6] it was 0.96 fold; in assay [7], 3.58 fold; in assay [8] it was 7.58 fold. Besides, the fold to wt-fucose in assay [9] is 730 fold.
For the substance G236R_L328R-afuc (antibody), the FcγR reporter signaling, fold to wt-fucose [cont'd] in assay [1] was determined as 0.2 fold; in [2] it was 0.05 fold. Besides, in assay [10], the fold-change (reference not given) is 0.2 fold. In addition, the fold to wt-fucose in [3] turned out to be 0.07 fold; in [4], 0.6 fold; in assay [5], 0.17 fold; in assay [6], 1.09 fold; in assay [7], 0.16 fold; in [8], 0.24 fold. For the same substance, in assay [9], the fold to wt-fucose worked out at 0.33 fold.
For “IgG1 antibody with Fc variant G236A_R292P”, the fold-change in binding vs fucosylated wild-type human IgG1 in [11] is 0.5 fold. Besides, the fold-change vs wt in assay [12] turned out to be 0.41 fold; in assay [13], 0.95 fold; in [10], 0.45 fold; in assay [14] it was 5.65 fold; in assay [15], 1.04 fold; in assay [16], 0.6 fold. The fold-change vs wt was 0.81 fold in assay [6] and 0.13 fold in assay [18]. In addition, the fold-change to WT Fc in [10] was found to be 0.446 fold; in assay [14], 5.65 fold; in assay [15] it was 1.04 fold; in assay [17] it was 0.809 fold; in assay [3], 0.411 fold; in assay [18] it was 0.125 fold. The fold-change to WT Fc in assay [9] was 0.603 fold. Further, the FcγR reporter signaling, fold-change vs wt [cont'd] in assay [19] amounted to 0.54 fold; in assay [20], 0.15 fold; in [21], 1.47 fold; in assay [22] it was 0.29 fold.
Regarding “IgG1 antibody with Fc variant G236S_G420V_G446E_L309T”, the fold-change in binding vs fucosylated wild-type human IgG1 in [11] is 0.5 fold. Besides, the fold-change vs wt in assay [12] is 0.09 fold; in assay [13], 0.56 fold; in assay [10] it was 0.39 fold; in assay [14], 4.85 fold; in assay [15], 1.47 fold; in assay [16], 0.32 fold. For the same substance, the results for the fold-change vs wt in [6] and in [18] were 0.77 fold and 0.21 fold, respectively. In addition, the FcγR reporter signaling, fold-change vs wt [cont'd] was 0.06 fold in [19], 0.22 fold in [20], 2.56 fold in assay [21] and 0.03 fold in assay [22].
For the substance IgG1 antibody with Fc variant G236Y, the fold-change vs wt in assay [23] was 0.12 fold; in assay [24], 0.55 fold; in [25] it was 1.05 fold; in assay [26], 3.22 fold; in [27], 0.74 fold; in assay [28], 0.42 fold. Further, the fold-change vs wt in assay [29] amounted to 0.56 fold. Further, the fold-change to WT Fc in assay [10] came out at 0.547 fold; in assay [14], 0.735 fold; in [15] it was 0.418 fold; in assay [17], 1.05 fold; in [3], 0.116 fold; in assay [18], 3.25 fold. In addition, the fold-change to WT Fc in assay [9] was determined as 0.559 fold.
As for R292P_Y300L-afuc (antibody), the FcγR reporter signaling, fold to wt-fucose [cont'd] in assay [1] amounted to 4.52 fold; in assay [2], 10.6 fold. Moreover, the fold to wt-fucose in assay [3] amounted to 16.1 fold; in [4] it was 4.53 fold; in assay [5], 1.05 fold; in assay [6], 0.82 fold; in [7], 1.27 fold; in [8] it was 0.72 fold. Besides, in [9], the fold to wt-fucose came to 26.5 fold.
Consider S239D_H268E_G236A-afuc (antibody), for which the results for the FcγR reporter signaling, fold to wt-fucose [cont'd] in assay [1] and in assay [2] were 5.65 fold and 11.6 fold, respectively. The fold to wt-fucose in assay [3] came out at 84.9 fold; in assay [4] it was 38.1 fold; in assay [5], 6.35 fold; in assay [6] it was 1.01 fold; in [7], 13.6 fold; in assay [8], 62 fold. The fold to wt-fucose in assay [9] was 425 fold.
